In US20090203038A1 (AbbVie / Abbott, published 2009):

Target: T1, biotinylated cyclic BNP (1-32c) (human, biotinylated; cyclic)
T1 construct: also called human BNP
Assay: flow cytometry, yeast-displayed scFv, biotinylated cyclic BNP (1-32c) detected with SA:PE
Procedure: Dilutions of the transformation reaction were plated on selective glucose plates (2% glucose (0.67% yeast nitrogen base, 0.105% HSM-trp-ura, 1.8% bacterial agar, 18.2% sorbitol, 0.86% NaH₂PO₄H₂O, 1.02% Na₂HPO₄ 7H₂O)) and incubated at 30° C. for 48-72 hours. Selective glucose media was inoculated with individual colonies and grown shaking at 30° C. for 16-20 hours. Protein expression was induced in colonies by transferring 0.5 OD600 of cells/ml (1e7 cells/0.5 OD/ml) to selective galactose media. Colonies were shaken at 20° C. for 16-24 hours and then analyzed by the FACS Aria flow cytometer for binding to cyclic BNP (referred to as “1-32c”) (SEQ ID NO:10) and anti-V5.

T1 sequence (peptide, as listed by the source): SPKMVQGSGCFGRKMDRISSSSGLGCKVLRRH

B1: 3-631-436 scFv (wildtype), displayed on the surface of yeast (scFv)
scFv: QVQLQQPGAELVRPGASVKLSCKASGYTFTSYWMNWVKQRPEQGLEWIGRIDPYDSETHYNQKFKDKAILTVDKSSSTAFVQLTSLTSEDSAVYYCVSDGYWGAGTTVTVSSGPAKELTPLKEAKVSDVVMTQTPLTLSVTTGQPASISCKSSQSLLDSDGKTYLNWLFQRPGESPKLLIYVVSKLESGVPDRFTGSGSGTDFTLKISRVEAEDLGVYYCLQATHFPWTFGGGTKLEIKRAAALESRGPFEGKPIPNPLLGLDSTRTGHHHHHH
binding result: binds
